Reference: patent publication US20190085093

Tests used:
[1] = molecular target: FCHo1-C-3×DDK mutation Δ563-564, O14526
[2] = molecular target: FCHo1-C-3×DDK mutation Δ531-589, O14526
Chain of FCHo1-C-3×DDK mutation Δ531-589, O14526 (O14526 whole entry, looked up, stated change not applied, tested part not stated): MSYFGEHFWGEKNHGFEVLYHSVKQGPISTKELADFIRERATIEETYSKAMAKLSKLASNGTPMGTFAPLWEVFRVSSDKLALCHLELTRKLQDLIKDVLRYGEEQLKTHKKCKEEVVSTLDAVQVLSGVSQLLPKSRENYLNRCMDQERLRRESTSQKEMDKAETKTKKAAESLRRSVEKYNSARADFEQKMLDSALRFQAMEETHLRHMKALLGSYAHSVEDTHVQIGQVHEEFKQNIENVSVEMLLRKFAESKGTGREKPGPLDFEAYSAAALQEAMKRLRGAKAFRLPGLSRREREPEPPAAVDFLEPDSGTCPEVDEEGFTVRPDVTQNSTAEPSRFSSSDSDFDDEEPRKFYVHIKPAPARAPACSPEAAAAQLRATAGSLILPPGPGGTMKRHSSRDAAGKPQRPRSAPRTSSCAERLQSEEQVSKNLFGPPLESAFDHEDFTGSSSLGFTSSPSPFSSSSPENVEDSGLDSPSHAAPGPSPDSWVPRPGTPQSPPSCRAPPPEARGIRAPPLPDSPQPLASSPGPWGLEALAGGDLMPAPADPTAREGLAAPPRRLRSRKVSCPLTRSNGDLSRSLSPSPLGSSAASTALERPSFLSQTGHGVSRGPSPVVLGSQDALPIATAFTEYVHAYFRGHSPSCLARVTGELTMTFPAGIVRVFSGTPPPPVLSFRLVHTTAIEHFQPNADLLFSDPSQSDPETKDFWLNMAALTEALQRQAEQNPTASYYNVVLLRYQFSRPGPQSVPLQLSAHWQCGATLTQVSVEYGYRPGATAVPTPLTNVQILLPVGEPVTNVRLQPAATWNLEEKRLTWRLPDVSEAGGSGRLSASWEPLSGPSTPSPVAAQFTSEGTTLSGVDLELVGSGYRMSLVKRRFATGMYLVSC

Chain of FCHo1-C-3×DDK mutation Δ563-564, O14526 (O14526 whole entry, looked up, stated change not applied, tested part not stated): as above

B1: matrix metallopeptidase 9 (MMP-9) (protein)
chain: APRQRQSTLVLFPGDLRTNLTDRQLAEEYLYRYGYTRVAEMRGESKSLGPALLLLQKQLSLPETGELDSATLKAMRTPRCGVPDLGRFQTFEGDLKWHHHNITYWIQNYSEDLPRAVIDDAFARAFALWSAVTPLTFTRVYSRDADIVIQFGVAEHGDGYPFDGKDGLLAHAFPPGPGIQGDAHFDDDELWSLGKGVVVPTRFGNADGAACHFPFIFEGRSYSACTTDGRSDGLPWCSTTANYDTDDRFGFCPSERLYTQDGNADGKPCQFPFIFQGQSYSACTTDGRSDGYRWCATTANYDRDKLFGFCPTRADSTVMGGNSAGELCVFPFTFLGKEYSTCTSEGRGDGRLWCATTSNFDSDKKWGFCPDQGYSLFLVAAHEFGHALGLDHSSVPEALMYPMYRFTEGPPLHKDDVNGIRHLYGPRPEPEPRPPTTTTPQPTAPPTVCPTGPPTVHPSERPTAGPTGPPSAGPTGPPTAGPSTATTVPLSPVDDACNVNIFDAIAEIGNQLYLFKDGKYWRFSEGRGSRPQGPFLIADKWPALPRKLDSVFEERLSKKLFFFSGRQVWVYTGASVLGPRRLDKLGLGADVAQVTGALRSGRGKMLLFSGRRLWRFDVKAQMVDPRSASEVDRMFPGVPLDTHDVFQYREKAYFCQDRFYWRVSSRSELNQVDQVGYVTYDILQCPED
With B1 the “zymography of MMP-9 after FLAG immunoprecipitation” value [1] was “the activity of MMP-9 is suppressed in FCHo1 deletion mutations A563-564 and A531-589 compared with the wild-type” and the “zymography of MMP-9 after FLAG immunoprecipitation” value [2] was “the activity of MMP-9 is suppressed in FCHo1 deletion mutations A563-564 and A531-589 compared with the wild-type”.
